The test system of this assay is chimeric Caspase-9 polypeptide. The experiment in a line: Caspase-9 mutant classes and basal activity (Table 5). Format: cell-based. To be noted: Caspase-9 mutant class; for Basal Activity: basal (ligand-independent) signaling compared with unmodified chimeric Caspase-9; for IC50: ligand IC50 compared with unmodified chimeric Caspase-9. The source says: Even though homo-dimerization of wild-type initiator Caspase-9 is energetically unfavorable, making them mostly monomers in solution [14-16], the low-level inherent basal activity of unprocessed Caspase-9 [15, 17] is enhanced in the presence of the Apaf-1-based “apoptosome”, its natural allosteric regulator [6]. Moreover, supra-physiological expression levels and/or co-localization could lead to proximity-driven dimerization, further enhancing basal activation. The modified cells of the present application may comprise nucleic acids coding for a chimeric Caspase-9 polypeptide having lower basal signaling activity. Polynucleotides comprising Caspase-9 mutants with lower basal signaling may be expressed in the modified cells used for cell therapy herein. In these examples, the modified cells may include a safety switch, comprising a polynucleotide encoding a lower basal signaling chimeric Caspase-9 polypeptide. In the event of an adverse event following administration of the modified cells comprising the chimeric signaling polypeptides or chimeric antigen receptors herein, Caspase-9 activity may be induced by administering the dimerizer to the patient, thus inducing apoptosis and clearance of some, or all of the modified cells. In some examples, the amount of dimerizer administered may be determined as an amount designed to remove the highest amount, at least 80% or 90% of the modified cells. In other examples, the amount of dimerizer administered may be determined as an amount designed to remove only a portion of the modified cells, in order to alleviate negative symptoms or conditions, while leaving a sufficient amount of therapeutic modified cells in the patient, in order to continue therapy. Methods for using chimeric Caspase-9 polypeptides to induce apoptosis are discussed in PCT Application Number PCT/US2011/037381 by Malcolm K. Brenner et al., titled Methods for Inducing Selective Apoptosis, filed May 20, 2011, and in U.S. patent application Ser. No. 13/112,739 by Malcolm K. Brenner et al., titled Methods for Inducing Selective Apoptosis, filed May 20, 2011, issued Jul. 28, 2015 as U.S. Pat. No. 9,089,520. Chimeric caspase polypeptides having modified basal activity are discussed in PCT Application Serial Number PCT/US2014/022004 by David Spencer et al., titled Modified Caspase Polypeptides and Uses Thereof, filed Mar. 7, 2014, published Oct. 9, 2014 as WO2014/164348, and in U.S. patent application Ser. No. 13/792,135 by David Spencer et al., titled Modified Caspase Polypeptides and Uses Thereof, filed Mar. 7, 2014; and in U.S. patent application Ser. No. 14/640,553 by Spencer et al., filed Mar. 6, 2015. Methods for inducing partial apoptosis of the therapeutic modified cells are discussed in PCT Application Number PCT/US14/040964 by Kevin Slawin et al., titled Methods for Inducing Partial Apoptosis Using Caspase Polypeptides, filed Jun. 4, 2014, published Dec. 11, 2014 as WO2014/197638, and in U.S. patent application Ser. No. 14/296,404 by Kevin Slawin et al., titled Methods for Inducing Partial Apoptosis Using Caspase Polypeptides, filed Jun. 4, 2014. These patent applications and publications are all incorporated by reference herein in their entireties.

From US20210147507A1, “METHODS TO AUGMENT OR ALTER SIGNAL TRANSDUCTION” (Bellicum Pharmaceuticals, Inc., priority 2017, published 2021) come the findings set out here.

Sequence of chimeric Caspase-9 polypeptide (P62942 2-108 F37V limits assumed): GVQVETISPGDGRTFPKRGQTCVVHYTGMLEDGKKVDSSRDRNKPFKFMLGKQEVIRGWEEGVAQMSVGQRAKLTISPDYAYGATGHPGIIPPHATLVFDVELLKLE

B1: N405Q (protein)
chain: GFGDVGALESLRGNADLAYILSMEPCGHCLIINNVNFCRESGLRTRTGSNIDCEKLRRRFSSLHFMVEVKGDLTAKKMVLALLELARQDHGALDCCVVVILSHGCQASHLQFPGAVYGTDGCPVSVEKIVNIFNGTSCPSLGGKPKLFFIQACGGEQKDHGFEVASTSPEDESPGSNPEPDATPFQEGLRTFDQLDAISSLPTPSDIFVSYSTFPGFVSWRDPKSGSWYVETLDDIFEQWAHSEDLQSLLLRVANAVSVKGIYKQMPGCFQFLRKKLFFKTSASRA
B1: the “Basal Activity” value is on record as “Decreased” and the IC50 result is listed as “higher IC50”.

B2: D330V (protein)
chain: GFGDVGALESLRGNADLAYILSMEPCGHCLIINNVNFCRESGLRTRTGSNIDCEKLRRRFSSLHFMVEVKGDLTAKKMVLALLELARQDHGALDCCVVVILSHGCQASHLQFPGAVYGTDGCPVSVEKIVNIFNGTSCPSLGGKPKLFFIQACGGEQKDHGFEVASTSPEDESPGSNPEPDATPFQEGLRTFDQLVAISSLPTPSDIFVSYSTFPGFVSWRDPKSGSWYVETLDDIFEQWAHSEDLQSLLLRVANAVSVKGIYKQMPGCFNFLRKKLFFKTSASRA
On to B2, for which the “Basal Activity” value is recorded as “Decreased” and the IC50 entry is “higher IC50”.

B3: L329E (protein)
chain: GFGDVGALESLRGNADLAYILSMEPCGHCLIINNVNFCRESGLRTRTGSNIDCEKLRRRFSSLHFMVEVKGDLTAKKMVLALLELARQDHGALDCCVVVILSHGCQASHLQFPGAVYGTDGCPVSVEKIVNIFNGTSCPSLGGKPKLFFIQACGGEQKDHGFEVASTSPEDESPGSNPEPDATPFQEGLRTFDQEDAISSLPTPSDIFVSYSTFPGFVSWRDPKSGSWYVETLDDIFEQWAHSEDLQSLLLRVANAVSVKGIYKQMPGCFNFLRKKLFFKTSASRA
On to B3, for which the “Basal Activity” value is “Decreased” and the IC50 entry is given as “higher IC50”.

B4: D330G (protein)
chain: GFGDVGALESLRGNADLAYILSMEPCGHCLIINNVNFCRESGLRTRTGSNIDCEKLRRRFSSLHFMVEVKGDLTAKKMVLALLELARQDHGALDCCVVVILSHGCQASHLQFPGAVYGTDGCPVSVEKIVNIFNGTSCPSLGGKPKLFFIQACGGEQKDHGFEVASTSPEDESPGSNPEPDATPFQEGLRTFDQLGAISSLPTPSDIFVSYSTFPGFVSWRDPKSGSWYVETLDDIFEQWAHSEDLQSLLLRVANAVSVKGIYKQMPGCFNFLRKKLFFKTSASRA
As for B4, the “Basal Activity” value was “Decreased” and the IC50 result is “higher IC50”.

B5: D330N (protein)
chain: GFGDVGALESLRGNADLAYILSMEPCGHCLIINNVNFCRESGLRTRTGSNIDCEKLRRRFSSLHFMVEVKGDLTAKKMVLALLELARQDHGALDCCVVVILSHGCQASHLQFPGAVYGTDGCPVSVEKIVNIFNGTSCPSLGGKPKLFFIQACGGEQKDHGFEVASTSPEDESPGSNPEPDATPFQEGLRTFDQLNAISSLPTPSDIFVSYSTFPGFVSWRDPKSGSWYVETLDDIFEQWAHSEDLQSLLLRVANAVSVKGIYKQMPGCFNFLRKKLFFKTSASRA
B5: the “Basal Activity” value was “Decreased” and the IC50 entry is “higher IC50”.

B6: D330S (protein)
chain: GFGDVGALESLRGNADLAYILSMEPCGHCLIINNVNFCRESGLRTRTGSNIDCEKLRRRFSSLHFMVEVKGDLTAKKMVLALLELARQDHGALDCCVVVILSHGCQASHLQFPGAVYGTDGCPVSVEKIVNIFNGTSCPSLGGKPKLFFIQACGGEQKDHGFEVASTSPEDESPGSNPEPDATPFQEGLRTFDQLSAISSLPTPSDIFVSYSTFPGFVSWRDPKSGSWYVETLDDIFEQWAHSEDLQSLLLRVANAVSVKGIYKQMPGCFNFLRKKLFFKTSASRA
Consider B6, for which the “Basal Activity” value was “Decreased” and the IC50 entry is “higher IC50”.
